Measured values: patent US9938510B2, “Photobacterium sp. alpha-2-6-sialyltransferase variants” (The Regents of the University of California, priority 2014, dated 2018)
Numbering of substitutions follows the chain as printed. Numbers in names are those of the source.

B1: Psp26ST(15-501)-His6: recombinant Photobacterium sp. JH-ISH-224 α2-6-sialyltransferase, residues 15-501, C-terminal His6, wild-type; SEQ ID NO: 23 (protein)
chain: CNNSEENTQSIIKNDINKTIIDEEYVNLEPINQSNISFTKHSWVQTCGTQQLLTEQNKESISLSVVAPRLDDDEKYCFDFNGVSNKGEKYITKVTLNVVAPSLEVYVDHASLPTLQQLMDIIKSEEENPTAQRYIAWGRIVPTDEQMKELNITSFALINNHTPADLVQEIVKQAQTKHRLNVKLSSNTAHSFDNLVPILKELNSFNNVTVTNIDLYDDGSAEYVNLYNWRDTLNKTDNLKIGKDYLEDVINGINEDTSNTGTSSVYNWQKLYPANYHFLRKDYLTLEPSLHELRDYIGDSLKQMQWDGFKKFNSKQQELFLSIVNFDKQKLQNEYNSSNLPNFVFTGTTVWAGNHEREYYAKQQINVINNAINESSPHYLGNSYDLFFKGHPGGGIINTLIMQNYPSMVDIPSKISFEVLMMTDMLPDAVAGIASSLYFTIPAEKIKFIVFTSTETITDRETALRSPLVQVMIKLGIVKEENVLFWA
modifications: C-terminal His6; Synthetic Psp26ST(15-501) WILD TYPE
B2: A366G: Photobacterium sp. JH-ISH-224 α2-6-sialyltransferase residues 15-501, A366G point mutation, C-terminal His6; SEQ ID NO: 2 (protein)
chain: B1 chain with A352G
modifications: C-terminal His6; Synthetic Psp26ST(15-501) A366G

Legend:
[1] = One-pot two-enzyme (OP2E) sialylation with NmCSS, GalNAcαSer as acceptor; format: biochemical; details: 1 equivalent of Neu5Ac and 1.5 equivalents of CTP
Source text: (§1) White bars: GalNAcαSer was used as an acceptor with 1 equivalent of Neu5Ac and 1.5 equivalents of CTP. Grey bars: GalNAcαSer was used as an acceptor with 2.5 equivalents of Neu5Ac and 5.0 equivalents of CTP. Black bars: GalNAcαThr was used as an acceptor with 2.5 equivalents of Neu5Ac and 5.0 equivalents of CTP.
In this system, CTP and Neu5Ac were used by NmCSS for the formation of CMP-Neu5Ac in situ (see also, Yu and Chen, et al. Bioorg. Med. Chem. 2004, 12, 6427-6435). CMP-Neu5Ac was used as the donor substrate for Psp26ST(15-501)-His6 or its mutants. […] For example, using 1 equivalent of Neu5Ac and 1.5 equivalents of CTP in the one-pot two-enzyme (OP2E) reaction (white bars in FIG. 6) improved the GalNAcαSer α2-6-sialylation reaction yields from less than 6% (1 equivalent CMP-Neu5Ac was used) (FIG. 5B) to 32-51% for W365A, W365G, W365S mutants. Similarly, the OP2E reaction improved the GalNAcαSer α2-6-sialylation reaction yields from 40% and 37% to 75% and 67% for A366G mutant and the wild-type enzyme, respectively. Increasing the concentrations of Neu5Ac and CTP to 2.5 and 5.0 equivalents further improved the reaction yields to more than 67% for Psp26ST(15-501)-His6 and its mutants (black bars in FIG. 6). […]

[2] = Expression and Ni2+-NTA purification of soluble recombinant protein; SDS-PAGE of lysates; parameters: species or system Escherichia coli; details: for expression level, purified by Ni2+-NTA column: per liter of Escherichia coli culture, repeated expression in duplicates or triplicates
Protocol: The plasmids containing mutant genes were transformed into Escherichia coli BL21 (DE3). The Escherichia coli cells were cultured in LB-rich media (10 g L^−1 tryptone, 5 g L^−1 yeast extract, and 10 g L^−1 NaCl) supplemented with ampicillin (100 μg mL^−1). Overexpression of the mutants was achieved by adding 0.3 mM of isopropyl-1-thio-β-D-galactopyranoside (IPTG) to the Escherichia coli culture when its OD600 nm reached 0.8. The induced culture was incubated at 20° C. for 20 h with vigorous shaking at 250 rpm in a C25KC incubator shaker (New Brunswick Scientific, Edison, N.J.). His6-tagged mutant proteins were purified from the cell lysate. To obtain cell lysate, the cell pellet harvested by centrifugation at 4000 rpm for 2 h was resuspended in 20 mL (for cells obtained from one liter culture) of lysis buffer (pH 8.0, 100 mM Tris-HCl containing 0.1% Triton X-100). Lysozyme (50 μg mL^−1) and DNaseI (3 μg mL^−1) were added to the resuspended cells followed by shaking at 37° C. for 60 min. The lysate was obtained as the supernatant after centrifugation at 11,000 rpm for 20 min. Purification of His6-tagged proteins from the lysate was achieved using 10 mL column packed with Ni^2+-NTA agarose. The column was pre-equilibrated with 8 column volumes of binding buffer (5 mM imidazole, 0.5 M NaCl, 50 mM Tris-HCl pH 7.5). After loading the sample, the column was washed with 8 column volumes of the binding and 8 column volumes of washing buffer (20 mM imidazole, 0.5 M NaCl, 50 mM Tris-HCl pH 7.5). Protein was eluted using 8 column volumes of the elute buffer (200 mM imidazole, 0.5 M NaCl, 50 mM Tris-HCl pH 7.5). The fractions containing the purified enzyme were collected and stored at 4° C. Protein concentrations were quantified by bicinchoninic acid (BCA) protein assay kit according to manufacturer's instruction using bovine serum albumin (BSA) as the protein standard. The wild-type enzyme and A366G mutant were expressed, purified, and quantified in duplicates or triplets for at least three times. […]

[3] = One-pot two-enzyme (OP2E) sialylation with NmCSS, GalNAcαThr as acceptor; format: biochemical; details: 2.5 equivalents of Neu5Ac and 5.0 equivalents of CTP
Source text: as §1
In this system, CTP and Neu5Ac were used by NmCSS for the formation of CMP-Neu5Ac in situ (see also, Yu and Chen, et al. Bioorg. Med. Chem. 2004, 12, 6427-6435). CMP-Neu5Ac was used as the donor substrate for Psp26ST(15-501)-His6 or its mutants. […] For example, using 1 equivalent of Neu5Ac and 1.5 equivalents of CTP in the one-pot two-enzyme (OP2E) reaction (white bars in FIG. 6) improved the GalNAcαSer α2-6-sialylation reaction yields from less than 6% (1 equivalent CMP-Neu5Ac was used) (FIG. 5B) to 32-51% for W365A, W365G, W365S mutants. Similarly, the OP2E reaction improved the GalNAcαSer α2-6-sialylation reaction yields from 40% and 37% to 75% and 67% for A366G mutant and the wild-type enzyme, respectively. Increasing the concentrations of Neu5Ac and CTP to 2.5 and 5.0 equivalents further improved the reaction yields to more than 67% for Psp26ST(15-501)-His6 and its mutants ([…]). […] Therefore, in situ generation of CMP-Neu5Ac, the sugar nucleotide donor for sialyltransferases, was proven an efficient method to enhance the yields for sialylation reactions catalyzed not only by the wild-type enzymes but also sialyltransferase mutants.

[4] = Sialyltransferase activity assay, GalNAcαSer as acceptor (HPLC); format: biochemical; details: 1 equivalent CMP-Neu5Ac was used; no NmCSS
Protocol: When LacβMU was used as an acceptor, the assay was performed in duplicate in 10 μL of Tris-HCl buffer (100 mM, pH 8.0) containing CMP-Neu5Ac (1 mM), LacβMU (1 mM), MgCl2 (20 mM), wild-type Psp2,6ST(15-501)-His6 or its mutant (0.3 μM). When an α-GalNAc-terminated acceptor was used, the assay was performed in duplicate in 10 μL of Tris-HCl buffer (100 mM, pH 8.0 for GalNAcαSer/Thr) or NaOAc-HOAc (100 mM, […]), MgCl2 (20 mM), wild-type Psp2,6ST(15-501)-His6 or its mutant (3.0 μM). Reactions were allowed to proceed at 20° C. for 20 min and stopped by adding 10 μL of cold ethanol. The analysis of sialylated product conversion was performed using the HPLC system as described above for sialyltransferase activity assay. The 4-methylumbelliferone (MU)-labeled fluorescent acceptor and the product formed were detected with excitation at 325 nm and emission at 372 nm. The 2-aminobenzoic acid (2AA)-labeled fluorescent acceptors and the products formed were detected with excitation at 315 nm and emission at 400 nm. The 9-fluorenylmethylcarbamate (Fmoc)-labeled fluorescent acceptors and the products formed were detected with excitation at 262 nm and emission at 313 nm.

Row | Molecule | GalNAcαSer α2-6-sialylation reaction yield, OP2E [1] | expression level, purified by Ni2+-NTA column [2] | yield of Neu5Acα2-6GalNAcαThr from GalNAcαThr, OP2E [3] | GalNAcαSer α2-6-sialylation reaction yield, sialyltransferase alone (FIG. 5B) [4] | expression level ([2]; general description)
1 | B1 | 67% | 18-40 mg per liter | 88% | 37% | 
2 | B2 | 75% | 72-110 mg per liter | 93% | 40% | 72 to 110 mg/L
